Experimental data from patent US20210032312A1 (Janssen / Centocor, published 2021).

B1: P282DR9P1359_A7 (designed binder)
chain: LPAPKNLVVSRVTEDSARLSWTAPDAAFDSFRIGYPELEKLGYGEAIVLTVPGSERSYDLTGLKPGTEYWVIIWGVKGGENSWPLSAIFTT
notes: FN3 domain
B2: P282DR9P1359_G7 (designed binder)
chain: LPAPKNLVVSRVTEDSARLSWTAPDAAFDSFAITYIEKEHIEDGEAIVLTVPGSERSYDLTGLKPGTEYWVPIWGVKGGANSWPLSAIFTT
notes: FN3 domain
B3: P282DR9P1359_H5 (designed binder)
chain: LPAPKNLVVSRVTEDSARLSWTAPDAAFDSFNIAYPEALHPGYGEAIVLTVPGSERSYDLTGLKPGTEYFVVIYGVKGGTNSEPLSAIFTT
notes: FN3 domain
B4: P282DR9P1359_E11 (designed binder)
chain: LPAPKNLVVSRVTEDSARLSWTAPDAAFDSFYISYPEWPPVGEAIVLTVPGSERSYDLTGLKPGTEYWVIIYGVKGGAISTPLSAIFTT
notes: FN3 domain
B5: P282DR9P1359_F7 (designed binder)
chain: LPAPKNLVVSRVTEDSARLSWTAPDAAFDSFAIAYPEWPPQGEAIVLTVPGSERSYDLTGLKPGTEYFVVIYGVKGGSYSAPLSAIFTT
notes: FN3 domain
B6: P282DR9P1359_F6 (designed binder)
chain: LPAPKNLVVSRVTEDSARLSWTAPDAAFDSFDIAYPEWPTTGEAIVLTVPGSERSYDLTGLKPGTEYFVVIWGVKGGDHSAPLSAIFTT
notes: FN3 domain
B7: P282DR9P1359_F3 (designed binder)
chain: LPAPKNLVVSRVTEDSARLSWTAPDAAFDSFYITYPEWPVQGEAIVLTVPGSERSYDLTGLKPGTEYWVIIYGVKGGTESEPLSAIFTT
notes: FN3 domain
B8: P282DR9P1359_B2 (designed binder)
chain: LPAPKNLVVSRVTEDSARLSWTAPDAAFDSFWIAYTEWPIPYEEAGQEGEAIVLTVPGSERSYDLTGLKPGTEYWVSIYGVKGGPNSQPLSAIFTT
notes: FN3 domain
B9: P282DR9P1359_E2 (designed binder)
chain: LPAPKNLVVSRVTEDSARLSWTAPDAAFDSFNIFYPEIVTWGEAIVLTVPGSERSYDLTGLKPGTEYWVNIVGVKGGDNSWPLSAIFTT
notes: FN3 domain
B10: P282DR9P1359_F11 (designed binder)
chain: LPAPKNLVVSRVTEDSARLSWTAPDAAFDSFDIFYPELPIHGEAIVLTVPGSERSYDLTGLKPGTEYWVNITGVKGGDFSWPLSAIFTT
notes: FN3 domain
B11: P282DR9P1359_G4 (designed binder)
chain: LPAPKNLVVSRVTEDSARLSWTAPDAAFDSFEIAYPEWPPPGEAIVLTVPGSERSYDLTGLKPGPEYFVVIQGVKGGDPSFPLSAIFTTGGNHHHHH
notes: FN3 domain
B12: P282DR9P1359_F2 (designed binder)
chain: LPAPKNLVVSRVTEDSARLSWTAPDAAFDSFNIAYPEALHPGYGEAIVLTVPGSERSYDLTGLKPGTEYWVIIGGVKGGQKSWPLSAIFTTGGHHHDHH
notes: FN3 domain
B13: P282FR9P1361_A5 (designed binder)
chain: LPAPKNLVVSRVTEDSARLSWTAPDAAFDSFGILYYEPVDSGEAITLPVPGSERSYDLTGLKPGTEYWVVITGVKGGAPSTPLGAIFTT
notes: FN3 domain
B14: P282ER9P1360_C1 (designed binder)
chain: LPAPKNLVVSRVTEDSARLSWTTPDAAFDSFGILYYEPVDSGEAITLPVPGSERSYDLTGLKPGTEYWVVITGVKGGAPSTPLGAIFTT
notes: FN3 domain
B15: P282ER9P1360_C8 (designed binder)
chain: LPAPKNLVVSRVTEDSARLSWTAPDAAFDSFGILYYEPVDSGEAITLPVPGSERSYDLTGLKPGTEYWVVITGVKGGAPSTPLGTIFTT
notes: FN3 domain
B16: P282ER9P1360_C4 (designed binder)
chain: LPAPKNLVVSRVTEDSARLSWTAPDAAFDSFGITYYEPNHGGEAISLSVPGSERSYDPTGLKPGTEYWVVITGVKGGAPSTPLGAIFTT
notes: FN3 domain
B17: P282ER9P1360_C6 (designed binder)
chain: LSAPKNLVVSRVTEDSARLSWTAPDAAFDSFGILYYEPVDSGEAITLPIPGSERSYDLTGLKPGTEYWVVITGVKGGAPSTPLGAIFTT
notes: FN3 domain
B18: P282ER9P1360_A9 (designed binder)
chain: LPAPKNLVVSRVTEDSARLSWTAPDAAFDSFGILYYEPVDSGEAITLPIPGSERSYDLTGLKPGTEYWVVITGVKGGAPSTPLGAIFTT
notes: FN3 domain
B19: P282CR9P1358_F11 (designed binder)
chain: LPAPKNLVVSRVTEDSARLSWTAPDAAFDSFLIAYPEWPIFEGEAIVLTVPGSERSYDLTGLKPGTEYFVVIYGVKGGEQSSPLSAIFTT
notes: FN3 domain
B20: P282DR9P1359_C5 (designed binder)
chain: LPAPKNLVVSRVTEDSARLSWTAPDAAFDSFWITYPEWPDPGGEAIVLTVPGSERSYDLTGLKPGTEYFVVIYGVKGGEIYSPLSAIFTT
notes: FN3 domain

What was measured:
[1] = target: T1, cynomolgus monkey CD8A on primary cynomolgus monkey CD8+ T cells (cynomolgus monkey, UniProt P01732 23-235 (human entry)); assay: flow cytometry, cyno CD8+ T cells, 0.2 uM FN3
T1 construct: also called Cyno CD8alpha
T1 sequence (P01732 other isoform, or with tags, fused parts or gaps limits assumed): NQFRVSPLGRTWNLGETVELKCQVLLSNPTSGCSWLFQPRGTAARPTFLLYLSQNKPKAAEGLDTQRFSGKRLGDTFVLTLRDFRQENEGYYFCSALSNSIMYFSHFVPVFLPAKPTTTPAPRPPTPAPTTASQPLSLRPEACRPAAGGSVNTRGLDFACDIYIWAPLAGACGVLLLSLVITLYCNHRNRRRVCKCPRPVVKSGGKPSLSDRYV

[2] = target: T1, cynomolgus monkey CD8A on primary …; assay: flow cytometry, cyno CD8+ T cells, 2 uM FN3
[3] = target: T2, human CD8 alpha (CD8A) on primary human CD8+ T cells (human, UniProt P01732 22-235); assay: flow cytometry, human CD8+ T cells, 2 uM FN3
T2 construct: whole, on cells; also called hCD8A
T2 sequence (P01732 22-235): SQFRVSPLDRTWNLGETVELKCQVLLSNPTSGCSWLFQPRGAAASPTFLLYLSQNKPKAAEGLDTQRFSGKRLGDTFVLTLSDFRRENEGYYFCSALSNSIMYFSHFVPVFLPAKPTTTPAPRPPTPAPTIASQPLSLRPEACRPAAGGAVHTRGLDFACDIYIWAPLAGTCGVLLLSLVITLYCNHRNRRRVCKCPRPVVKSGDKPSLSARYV

[4] = target: T3, In house human CD8A-Fc (human, UniProt P01732 22-182, limits assumed); assay: SPR (ProteOn), captured hCD8A-Fc
T3 construct: Captured on goat anti-human Fc on a ProteOn GLC chip; also called hCD8A-Fc; recombinant human CD8 alpha; not shown: linker with flag (and polyhistidine) tag and Fc of human IgG1
T3 sequence (P01732 22-182 limits assumed): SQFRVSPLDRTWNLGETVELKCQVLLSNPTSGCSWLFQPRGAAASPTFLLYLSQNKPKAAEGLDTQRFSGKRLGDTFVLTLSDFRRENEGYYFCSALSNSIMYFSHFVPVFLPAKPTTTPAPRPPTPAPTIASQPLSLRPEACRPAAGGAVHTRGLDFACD

[5] = target: T2, human CD8 alpha (CD8A) on primary human …; assay: flow cytometry, human CD8+ T cells, 0.2 uM FN3

Row | Binder | Cyno T-cell Binding 0.2 uM (MFI) [1] [MFI] | Cyno T-cell Binding 2 uM (MFI) [2] [MFI] | Human T-cell Binding 2 uM (MFI) [3] [MFI] | koff [4] [s⁻¹] | Human T-cell Binding 0.2 uM (MFI) [5] [MFI]
1 | B1 | 22800 | 83900 | 38400 | 0.000754 | 8760
2 | B2 | 8770 | 69100 | 37600 | 0.000114 | 6130
3 | B3 | 500 | 2250 | 919 | 0.00449 | 278
4 | B4 | 33100 | 104000 | 40600 | 0.000265 | 7580
5 | B5 | 26300 | 96500 | 38300 | 0.000365 | 6930
6 | B6 | 10700 | 73200 | 19900 | 0.000389 | 3780
7 | B7 | 3080 | 48900 | 6340 | 0.00106 | 646
8 | B8 | 4470 | 60900 | 22200 | 0.000638 | 2730
9 | B9 | 10900 | 77700 | 28500 | 0.00206 | 4820
10 | B10 | 16100 | 86700 | 35600 | 0.000554 | 6590
11 | B11 | 6010 | 78600 | 26600 | 0.000517 | 2670
12 | B12 | 4030 | 38200 | 18400 | 0.000722 | 3050
13 | B13 | 8110 | 63500 | 32800 | 0.000192 | 5210
14 | B14 | 9680 | 64800 | 25900 | 0.000181 | 6290
15 | B15 | 10200 | 66800 | 30600 | 0.000156 | 6010
16 | B16 | 3900 | 33400 | 19200 | 0.00107 | 3460
17 | B17 | 7580 | 52800 | 25900 | 0.000175 | 5080
18 | B18 | 8730 | 64700 | 23400 | 0.000133 | 5340
19 | B19 | 6580 | 62400 | 6420 | 0.00135 | 749
20 | B20 | 14200 | 95700 | 31000 | 0.000174 | 5550
